Assay results taken from article PMC12632272.

Tests used:
[1] = target: T1, CRP (cAMP receptor protein) (Escherichia coli ATCC 25922) (UniProt P0ACJ8); assay: EMSA; details: EMSA: 20 mM Tris (pH not stated), 10 mM MgCl2, 0.1 mM EDTA, 100 mM KCl, 200 uM cAMP, room temperature 15 min; 5% gel, 0.3x TBE, 150 V, 20 C
T1 sequence: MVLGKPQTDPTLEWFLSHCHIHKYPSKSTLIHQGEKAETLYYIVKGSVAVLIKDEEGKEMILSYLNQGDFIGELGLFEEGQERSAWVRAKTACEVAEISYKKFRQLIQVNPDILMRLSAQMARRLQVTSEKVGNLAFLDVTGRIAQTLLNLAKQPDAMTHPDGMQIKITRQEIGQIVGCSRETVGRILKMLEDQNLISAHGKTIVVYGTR

[2] = target: T1, CRP (cAMP receptor protein) (Escherichia coli ATCC 25922); assay: competition; details: EMSA: 20 mM Tris (pH not stated), 10 mM MgCl2, 0.1 mM EDTA, 100 mM KCl, 200 uM cAMP, room temperature 15 min; 5% gel, 0.3x TBE, 150 V, 20 C

| Sequence | binding [1] | binding [2] |
| --- | --- | --- |
| CGCCTAAGTTTGCCCGTAATAATTCCCCGTGCAGTACTATTGTTGCGACATAACAACATGAATTACATGGTAATAATAGATGTTTTCCTCTGCTGATTCCTGTAAAGATCATGACTCCATACGACATCATTTTTAATATTATACAGTTCAAAAAATCTACATGTGTCACAAATAATTTTACATTTGATAATGTATAGTTGTCACATGACAAGTTGATTATCATTCTGTGTAGACAAGGAGAACTGTTATGACGGAT (double strand) [P1/2 DHAP shunt promoter fragment] | binds |  |
| CGCCTAAGTTTGCCCGTAATAATTCCCCGTGCAGTACTATTGTTGCGACATAACAACATGAATTACATGGTAATAATAGATGTTTTCCTCTGCTGATTCCTGTAAAGATCATGACTCCATACGACATCATTTTTAATATTATACAGTTCAAAAAATCTACATGTGTCACAAATAATTTTACATTTGATAATGTATAGTTGTCACATGACAAGTTGATTATCATTCTGTGTAGACAAGGAGAACTGTTATGACGGAT (double strand) [P1/2 unlabeled competitor] |  | binds |
